Where no end group is shown, it is not given here.
Tests used:
[1] = target: honeybee tachykinin-related peptide receptor, FLAG-TRPR expressed in HEK293 cells (Apis mellifera); experiment: competitive binding of a fluorescent ligand on cells
[2] = target: honeybee tachykinin-related peptide receptor, FLAG-TRPR expressed in Sf21 cells (Apis mellifera); experiment: as above

Row | IC50 [1] [nM] | IC50 [2] [nM] | Binder
1 | 2.34 | 8.76 | ALMGFQGVR-NH2 [tachykinin-related peptide 2 (TRP2), unlabeled]
2 | 6.29 | 34.9 | APMGFQGMR-NH2 [tachykinin-related peptide 3 (TRP3), unlabeled]

— publication doi:10.1101/2021.01.12.426394
